“Also recorded” adds a separate entry of the source.
Assays:
[1] = system: MIA-PaCa-2 EV-derived tumors; experiment: Mouse model inoculated with pancreas cancer cells, MIA-PaCa-2 EV tumors; format: in vivo; settings: 5 mg/kg, 29 days
Protocol: The efficacy and specificity of SNS622-MC-DM1 was first examined in the mouse model with inoculation of pancreas cancer cells. In this model. 5 to 6-week-old female Nod Scid Gamma (NSG) mice (The Jackson Laboratory, Bar Harbor, Me., U.S.A.) were subcutaneously inoculated with 5×10^5 MIA-PaCa-2 EV cells (MIA-PaCa-2 cells transduced with an empty lentivirus vector) in 100 μl buffer solution on one shoulder, and with 5×10^5 MIA-PaCa-2 ASPH cells (MIA-PaCa-2 cells expressing high levels of ASPH) in 100 μl buffer solution on the other shoulder Two weeks post-inoculation, SNS622-MC-DM1 or IgG1-MC-DM1 was injected at 5 mg/kg through a tail vein once a week for 4 weeks. A representation of the schedule used for the ADC treatments is show n in FIG. 13.
The response to treatment with SNS622-MC-DM1 of tumors derived from MIA-PaCa-2 HAAH cells and from MIA-PaCa-2 EV cells were compared in the same mouse.

[2] = system: normal human lung fibroblasts (NHLF); experiment: Cell morphology by phase contrast microscope, NHLF; format: cell-based; settings: 32 nM, 72 hours
H460 lysate = target: T1, H460 lysate (Homo sapiens, UniProt Q12797); experiment: Binding of naked antibodies and ADCs to H460 lysate
T1 construct: A 96-well plate was coated with H460 lysate and dried at room temperature overnight; endogenous in cells; host or cells: H460 lysate (sonicated, supernatant)
T1 sequence (Q12797 1-758): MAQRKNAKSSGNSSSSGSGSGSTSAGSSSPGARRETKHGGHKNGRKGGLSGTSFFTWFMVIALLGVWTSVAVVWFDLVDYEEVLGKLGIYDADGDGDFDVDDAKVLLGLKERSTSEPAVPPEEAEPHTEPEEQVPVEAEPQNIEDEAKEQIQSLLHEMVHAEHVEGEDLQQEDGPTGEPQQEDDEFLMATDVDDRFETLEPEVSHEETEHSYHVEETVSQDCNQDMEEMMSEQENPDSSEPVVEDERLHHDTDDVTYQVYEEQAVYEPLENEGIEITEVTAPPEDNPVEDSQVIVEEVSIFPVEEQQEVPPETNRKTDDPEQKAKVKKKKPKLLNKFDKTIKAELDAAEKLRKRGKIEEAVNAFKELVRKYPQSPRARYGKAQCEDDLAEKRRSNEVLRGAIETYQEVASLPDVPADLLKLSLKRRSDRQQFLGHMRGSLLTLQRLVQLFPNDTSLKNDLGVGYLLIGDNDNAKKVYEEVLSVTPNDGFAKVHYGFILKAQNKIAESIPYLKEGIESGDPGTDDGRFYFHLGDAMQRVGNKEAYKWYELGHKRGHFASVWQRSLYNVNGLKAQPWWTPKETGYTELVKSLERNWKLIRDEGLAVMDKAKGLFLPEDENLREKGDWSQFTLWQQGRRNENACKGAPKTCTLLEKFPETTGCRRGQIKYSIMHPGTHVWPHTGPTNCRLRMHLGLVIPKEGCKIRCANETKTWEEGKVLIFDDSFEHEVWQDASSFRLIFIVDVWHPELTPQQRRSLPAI
Protocol: H460 cells were harvested, the cell density was adjusted to 2×10^6 cells/ml with PBS, and the resuspended cells sonicated on ice twice in 30 second pulses. After centrifugation at 300×g for 5 minutes the supernatant was collected and the protein concentration measured using a NANODROP spectrophotometer (ThermoFisher Scientific). A 96-well plate was coated with H460 lysate and dried at room temperature overnight. Following a 1-hour blockage with 1% non-fat dry milk in phosphate buffered saline (PBS), the plates were incubated for 45 minutes at 37° C. with each either 0.5 μg/ml IgG1λ (non-specific monoclonal antibody), IgG1λ-MC-DM1 (non-specific ADC), or SNS622-MC-DM1, or with 5 μg/ml SNS622. Following five PBS rinses to remove un-bound antibody. 1:100 goat anti-human IgG (8)-HRP was added and the plates incubated for 30 minutes at 37° C. Following five PBS rinses TMB substrate was added and, after incubation of the plates for 15 minutes at room temperature. Stop solution was added to terminate the reactions. The plates were read at 450 nm using a 96-well plate reader (ELx808, BioTek).

H460 cells = experiment: Lactate dehydrogenase (LDH) release assay, H460
Protocol: FIG. 6 depicts the effects of linker and payload on cytotoxicity to cancer cell H460. […] The Log of the antibody concentration in nM is shown on the X axis.
HAAH is highly expressed on the surface of cancer cells, but not on normal adult human cells. The specificity of SNS622-MC-DM1 was examined using human lung carcinoma cell line H460 and LONZA NHLF, a normal human lung fibroblasts (NHLF) cell line. Both cell lines were cultured in HG-DMEM (ThermoFisher Scientific Catalog No. 11965-092) supplemented with 20 mM HEPES (4-(2-hydroxyethyl)-1-piperazineethanesulfonic acid), 4 mM L-glutamine, 1 mM sodium pyruvate, 1× non-essential amino acids, 50 μg/ml gentamicin and 10% fetal bovine serum (FBS). H460 and NHLF cells were seeded into 96-well plates at 5,000 cells per well, following a 2-day FBS deprivation, and released by culture in complete culture medium containing 10% FBS. […] By 72 hours post treatment, cell death was determined by observing cell morphology using a phase contrast microscope at 150×.
The cell death was also quantified using lactate dehydrogenase (LDH) releasing assay. For the LDH assay, a mixture of a 35 μl aliquot of culture medium and 17.5 μl of substrate, enzyme, and dye solutions (Sigma, St. Louis, Mo., U.S.A.) was incubated at room temperature for 30 minutes, and absorbance was measured at 490 nm using a plate reader (ELx805; BioTek, Winooski, Vt., U.S.A.).

MOLM-14 cells = experiment: MTS cell viability assay, MOLM-14; format: cell-based, human; settings: MOLM-14, 24 hours
Protocol: Human H460 cells were obtained from the American Type Culture Collection (ATCC; Manassas, Va., U.S.A.). […] Human MOLM-14 cells were obtained from Dr. Ashkan Emadi at University of Maryland (Baltimore. Md., U.S.A.). The MOLM-14 cells were seeded at a density of 5000 cells/well in 96-well plates and cultured in RPMI 1640 with 20% heat-inactivated FBS. The H460 and MOLM-14 cells were treated with naked antibodies or ADCs for 24 hours, starting at the time of cell seeding. By the end of experiment, the cell viability for both cell lines was determined quantitatively using CELL TITER 96 AQUOUS ONE SOLUTION cell proliferation assay, a colorimetric method for determining the number of viable cells (MTS; Promega, Madison. Wis., U.S.A.; Catalog No. G3582).

## SNS622-MC-DM1: SNS622 anti-HAAH monoclonal antibody conjugated to mertansine (DM1) by the non-cleavable linker maleimidocaproyl (MC)
[1]
  Effect on MIA-PaCa-2 EV tumor growth: grew fast throughout the duration of the experiment; also recorded: much lower effect on tumors derived from MIA-PaCa-2 EV cells
[2]
  Cell density (morphology): no significant reduction of cell density
H460 lysate; percent of loading amount bound
  Percent binding: 107%
H460 lysate; sonicated H460 (2E^6 cells/ml), loading 5.0 or 0.5 μg/ml
  Binding amount: 5.35 µg/mL
H460 cells; H460, 32 nM, 72 hours
  Increase in release of LDH compared to untreated cells: 39 ×
H460 cells; read-out: LC50 of LDH, H460, 72 hours, reaction DAR 10:1
  CC50: 0.036 µM
MOLM-14 cells
  Effect on MOLM-14 cell viability / growth (MTS): inhibit in vitro cell growth of both H460 and MOLM-14; also recorded: greatest suppression in the growth of MOLM-14 cells
